Reference: ChEMBL document CHEMBL1629679, “Extended-spectrum cephalosporinases in Pseudomonas aeruginosa” (2009)

Experiments:
[1] = substrate: CC1(C)S[C@@H]2[C@H](NC(=O)Cc3ccccc3)C(=O)N2[C@H]1C(=O)O; assay: (§1) Ratio of Kcat to Km for Pseudomonas aeruginosa PDC-5 by spectrophotometer
[2] = substrate: CCN1CCN(C(=O)N[C@@H](C(=O)N[C@@H]2C(=O)N3[C@@H]2SC(C)(C)[C@@H]3C(=O)O)c2ccccc2)C(=O)C1=O; assay: as §1
[3] = substrate: C[C@@H](O)[C@H]1C(=O)N2C(C(=O)O)=C(SCCNC=N)C[C@H]12; assay: as §1
[4] = substrate: CO/N=C(\C(=O)N[C@@H]1C(=O)N2C(C(=O)O)=C(COC(C)=O)CS[C@H]12)c1csc(N)n1; assay: as §1
[5] = substrate: CC(C)(O/N=C(\C(=O)N[C@@H]1C(=O)N2C(C(=O)[O-])=C(C[n+]3ccccc3)CS[C@H]12)c1csc(N)n1)C(=O)O; assay: as §1
[6] = substrate: CC1(C)S[C@@H]2[C@H](NC(=O)Cc3ccccc3)C(=O)N2[C@H]1C(=O)O; assay: (§2) Activity at Pseudomonas aeruginosa PDC-5 by spectrophotometer
[7] = substrate: CCN1CCN(C(=O)N[C@@H](C(=O)N[C@@H]2C(=O)N3[C@@H]2SC(C)(C)[C@@H]3C(=O)O)c2ccccc2)C(=O)C1=O; assay: as §2
[8] = substrate: C[C@@H](O)[C@H]1C(=O)N2C(C(=O)O)=C(SCCNC=N)C[C@H]12; assay: as §2
[9] = substrate: CO/N=C(\C(=O)N[C@@H]1C(=O)N2C(C(=O)O)=C(COC(C)=O)CS[C@H]12)c1csc(N)n1; assay: as §2
[10] = substrate: CO/N=C(\C(=O)N[C@@H]1C(=O)N2C(C(=O)[O-])=C(C[N+]3(C)CCCC3)CS[C@H]12)c1csc(N)n1; assay: as §2
[11] = substrate: CC(C)(O/N=C(\C(=O)N[C@@H]1C(=O)N2C(C(=O)[O-])=C(C[n+]3ccccc3)CS[C@H]12)c1csc(N)n1)C(=O)O; assay: as §2
[12] = substrate: CC1(C)S[C@@H]2[C@H](NC(=O)Cc3ccccc3)C(=O)N2[C@H]1C(=O)O; assay: (§3) Ratio of Kcat to Km for Pseudomonas aeruginosa PDC-1 by spectrophotometer
[13] = substrate: CCN1CCN(C(=O)N[C@@H](C(=O)N[C@@H]2C(=O)N3[C@@H]2SC(C)(C)[C@@H]3C(=O)O)c2ccccc2)C(=O)C1=O; assay: as §3
[14] = substrate: C[C@@H](O)[C@H]1C(=O)N2C(C(=O)O)=C(SCCNC=N)C[C@H]12; assay: as §3
[15] = substrate: CO/N=C(\C(=O)N[C@@H]1C(=O)N2C(C(=O)O)=C(COC(C)=O)CS[C@H]12)c1csc(N)n1; assay: as §3
[16] = substrate: CO/N=C(\C(=O)N[C@@H]1C(=O)N2C(C(=O)[O-])=C(C[N+]3(C)CCCC3)CS[C@H]12)c1csc(N)n1; assay: as §3
[17] = substrate: CC(C)(O/N=C(\C(=O)N[C@@H]1C(=O)N2C(C(=O)[O-])=C(C[n+]3ccccc3)CS[C@H]12)c1csc(N)n1)C(=O)O; assay: as §3
[18] = substrate: CC1(C)S[C@@H]2[C@H](NC(=O)Cc3ccccc3)C(=O)N2[C@H]1C(=O)O; assay: (§4) Activity at Pseudomonas aeruginosa PDC-1 by spectrophotometer
[19] = substrate: CCN1CCN(C(=O)N[C@@H](C(=O)N[C@@H]2C(=O)N3[C@@H]2SC(C)(C)[C@@H]3C(=O)O)c2ccccc2)C(=O)C1=O; assay: as §4
[20] = substrate: C[C@@H](O)[C@H]1C(=O)N2C(C(=O)O)=C(SCCNC=N)C[C@H]12; assay: as §4
[21] = substrate: CO/N=C(\C(=O)N[C@@H]1C(=O)N2C(C(=O)O)=C(COC(C)=O)CS[C@H]12)c1csc(N)n1; assay: as §4
[22] = substrate: CO/N=C(\C(=O)N[C@@H]1C(=O)N2C(C(=O)[O-])=C(C[N+]3(C)CCCC3)CS[C@H]12)c1csc(N)n1; assay: as §4
[23] = substrate: CC(C)(O/N=C(\C(=O)N[C@@H]1C(=O)N2C(C(=O)[O-])=C(C[n+]3ccccc3)CS[C@H]12)c1csc(N)n1)C(=O)O; assay: as §4

B1: Beta-lactamase (Pseudomonas aeruginosa), Q8RL90 (protein)
chain: MRDTRFPCLCGIAASTLLFATTPAIAGEAPADRLKALVDAAVQPVMKANDIPGLAVAISLKGEPHYFSYGLASKEDGRQVTPETLFEIGSVSKTFTATLAGYALAQDKMRLDDRASQHWPALQGSRFDGISLLDLATYTAGGLPLQFPDSVQKDQAQIRDYYRQWQPTYAPGSQRLYSNPSIGLFGYLAARSLGQPFERLMEQQVFPALGLEQTHLDVPEAALAQYAQGYGKDDRPLRVGPGPLDAEGYGVKTSAADLLRFVDANLHPERLDRPWAQALDATHRGYYKVGDMTQGLGWEAYDWPISLKRLQAGNSTPMALQPHRIARLPAPQALEGQRLLNKTGSTNGFGAYVAFVPGRDLGLVILANRNYPNAERVKIAYAILSGLEQQGKVPLKR
kcat/Km [1]: 860000 M⁻¹ s⁻¹ | kcat/Km [2]: 125000 M⁻¹ s⁻¹ | kcat/Km [3]: 6e+06 M⁻¹ s⁻¹ | kcat/Km [4]: 20000 M⁻¹ s⁻¹ | kcat/Km [5]: 500000 M⁻¹ s⁻¹ | Km [6]: 35 µM | kcat [6]: 30 s⁻¹ | Km [7]: 40 µM | kcat [7]: 5 s⁻¹ | Km [8]: 15 µM | kcat [8]: 0.1 s⁻¹ | Km [9]: 5 µM | kcat [9]: 0.1 s⁻¹ | Km [10]: 1700 µM | Km [11]: 30 µM | kcat [11]: 0.015 s⁻¹

B2: Beta-lactamase (Pseudomonas aeruginosa (strain ATCC 15692 / PAO1 / 1C / PRS 101 / LMG12228)), P24735 (protein)
chain: MRDTRFPCLCGIAASTLLFATTPAIAGEAPADRLKALVDAAVQPVMKANDIPGLAVAISLKGEPHYFSYGLASKEDGRRVTPETLFEIGSVSKTFTATLAGYALTQDKMRLDDRASQHWPALQGSRFDGISLLDLATYTAGGLPLQFPDSVQKDQAQIRDYYRQWQPTYAPGSQRLYSNPSIGLFGYLAARSLGQPFERLMEQQVFPALGLEQTHLDVPEAALAQYAQGYGKDDRPLRVGPGPLDAEGYGVKTSAADLLRFVDANLHPERLDRPWAQALDATHRGYYKVGDMTQGLGWEAYDWPISLKRLQAGNSTPMALQPHRIARLPAPQALEGQRLLNKTGSTNGFGAYVAFVPGRDLGLVILANRNYPNAERVKIAYAILSGLEQQGKVPLKR
kcat/Km [12]: 430000 M⁻¹ s⁻¹ | kcat/Km [13]: 50000 M⁻¹ s⁻¹ | kcat/Km [14]: 500000 M⁻¹ s⁻¹ | kcat/Km [15]: 3000 M⁻¹ s⁻¹ | kcat/Km [16]: 100000 M⁻¹ s⁻¹ | kcat/Km [17]: 200000 M⁻¹ s⁻¹ | Km [18]: 35 µM | Km [19]: 100 µM | kcat [19]: 2 s⁻¹ | Km [20]: 20 µM | kcat [20]: 0.01 s⁻¹ | Km [21]: 6 µM | kcat [21]: 0.02 s⁻¹ | Km [22]: 800 µM | kcat [22]: 0.08 s⁻¹ | kcat [23]: 0.004 s⁻¹
